The values below come from publication PMC4513855.

The target in one series is T1, VirE2 (Agrobacterium tumefaciens (nopaline …, UniProt P08062 1-556)).
T1 sequence: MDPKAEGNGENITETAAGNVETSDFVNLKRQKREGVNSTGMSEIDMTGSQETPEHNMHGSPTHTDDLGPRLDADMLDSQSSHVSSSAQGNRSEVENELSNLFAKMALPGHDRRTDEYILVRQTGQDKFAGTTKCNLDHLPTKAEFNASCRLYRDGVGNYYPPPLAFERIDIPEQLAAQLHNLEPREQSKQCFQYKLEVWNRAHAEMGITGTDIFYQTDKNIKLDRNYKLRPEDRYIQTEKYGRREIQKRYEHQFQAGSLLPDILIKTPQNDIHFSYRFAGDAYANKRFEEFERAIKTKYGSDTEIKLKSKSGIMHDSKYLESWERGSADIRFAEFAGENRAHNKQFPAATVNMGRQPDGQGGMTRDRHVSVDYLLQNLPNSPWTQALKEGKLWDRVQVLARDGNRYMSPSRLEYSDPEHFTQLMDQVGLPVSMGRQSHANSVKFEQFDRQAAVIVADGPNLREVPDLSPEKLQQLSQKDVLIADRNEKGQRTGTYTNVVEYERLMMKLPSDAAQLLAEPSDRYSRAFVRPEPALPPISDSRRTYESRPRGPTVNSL
Briefly: SPRi.

Series [1] addresses T2, VirE2 (co-expressed with VirE1);VirE1 (Agrobacterium tumefaciens (nopaline …, UniProt P08062;P08063 1-556;1-63, |)).
T2 sequence 1: T1 sequence
T2 sequence 2: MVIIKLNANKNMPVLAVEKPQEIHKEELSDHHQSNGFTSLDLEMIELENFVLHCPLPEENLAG
The experiment in a line: SPRi.

B1: ssT40 (poly-T 40-mer) (ssDNA)
DNA: TTTTTTTTTTTTTTTTTTTTTTTTTTTTTTTTTTTTTTTT
modifications: 5' C6-thiol
Take B1: the binding result (with VirE2; in series [1]) was “binds” each time.
